The assay concerns the target human BCMA (huBCMA) on cells (human) (UniProt Q02223). Put plainly: FACS, H929 cells, negative control. A general note: Flow cytometry measures light scatter and fluorescence of single cells or particles in a stream.

Results on one substance are retold here after patent US20150344583A1.

human BCMA (huBCMA) on cells (human), sequence (Q02223 whole entry N81S): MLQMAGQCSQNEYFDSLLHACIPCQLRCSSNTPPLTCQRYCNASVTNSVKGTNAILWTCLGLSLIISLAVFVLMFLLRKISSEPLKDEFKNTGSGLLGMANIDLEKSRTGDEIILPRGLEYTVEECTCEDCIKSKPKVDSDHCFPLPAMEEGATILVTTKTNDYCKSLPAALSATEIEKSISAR

As for hu IgG1 (antibody), the MFI was 8 MFI.
